Assay results published in PMC7859441.
Starred links: 1 amine or outer side, 2 acyl side, 3 side chain; linkers in the order of their positions; H or OH if unused. Non-standard residues stand in square brackets, D forms with d. No end group written: not given here. βAsp = O=C(O)[C@H](CC(=O)[*:2])N[*:1]

Experiments:
[1] = target: zebrafish Pcmt (protein L-isoaspartyl methyltransferase) (zebrafish) (UniProt Q92047)
[2] = target: zebrafish Pcmtl (protein L-isoaspartyl methyltransferase paralog) (zebrafish)

Chain of UniProt Q92047 (Q92047 whole entry): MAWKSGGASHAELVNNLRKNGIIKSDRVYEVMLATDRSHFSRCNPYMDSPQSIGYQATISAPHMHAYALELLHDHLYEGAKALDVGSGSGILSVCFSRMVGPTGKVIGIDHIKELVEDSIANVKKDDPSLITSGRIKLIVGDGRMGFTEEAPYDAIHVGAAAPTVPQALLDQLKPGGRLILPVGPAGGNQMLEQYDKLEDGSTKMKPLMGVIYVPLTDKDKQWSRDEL

B1: isoaspartyl substrate peptide KASAisoDLAKY (peptide)
peptide: KASA[βAsp]LAKY
KM for the methyl acceptor peptide substrate, isoaspartyl methyltransferase activity (methanol vapor diffusion assay, 30°C, 0.2 M Bis-Tris pH 6.0, 14.5 μM SAM, 0.2–60 μM peptide) [1]: 4.2 μM | KM for the methyl acceptor peptide substrate, isoaspartyl methyltransferase activity (methanol vapor diffusion assay, 30°C, 0.2 M Bis-Tris pH 6.0, 14.5 μM SAM, 0.2–60 μM peptide) [2]: 3.6 μM
